Laboratory results: the DeepSol protein solubility set

assay: soluble on expression in E. coli; label from the status in PepcDB or PDB records

| Sequence | soluble on expression in E. coli |
| --- | --- |
| MSGMWLWASVSPESTGIKMSESFAELFEESLKTLNLQPGAIITGIVVDIDGDWVTVHAGLKSEGVIPLEQFYNEAGELTIKVGDEVHVALDAVEDGFGETKLSREKAKRAECWIVLEAAFAAEEVVKGVINGKVKGGFTVDVNGIRAFLPGSLVDVRPVRDTTHLEGKELEFKVIKLDQKRNNVVVSRRSVLEAENSAEREALLETLQEGQQVKGIVKNLTDYGAFVDLGGIDGLLHITDMAWKRIKHPSEIVNVGDEVDVRVLKFDRERNRVSLGLKQMGEDPWVAITARYPEGTRVQARVTNLTDYGCFAELEEGVEGLVHVSEMDWTNKNIHPSKVVQVGDEVEVMVLDIDEERRRISLGIKQCKSNPWEDFSGQFNKGDKITGTIKSITDFGIFIGLDGGIDGLVHLSDISWNETGEEAVRRFKKGDELETVILSVDPERERISLGIKQLEDDPFSNFVAVNDKGAIVKGIVKEVDAKGAIVTLADDIEATLKASEISRDRVEDARNVLKEGEEIEAKIISVDRKSRVISLSIKSKDDAEEREAIQSLKNAPEAAADTTMAALLREAMAKQNLEHHHHHH | soluble |
| MTADWVVTFTFDADPSMETMDAWETQLEGFDALVSRVPGHGIDVTVYAPGDWSVFDALAKMAGEVMPVVQAKSPIAVQIISEPEHRLRAEAFTTPELMSAAEIADELGVSRQRVHQLRSTAGFPAPLADLRGGAVWDAAAVRRFAETWERKPGRPHTGTAKFAYSWAVGPAVGRSGKAPNVRWRVENPDKIRFVLRNIGDDIAEDVEIDLSRIDAITRNVPKKTVIRPGEGLNMVLIAAWGHPLPNQLYVRWAGQDEWAAVPLHPAH | soluble |
| MGSDKIHHHHHHMSVAEPNSHTQRNQPRPIRVGVIGVGNMGQHHTRVLSSMKDVELVGVSDINVERGLETASKYKVRFFEDYCDLLPHVEAVCIAVPTRLHYAVGINCLLAGIHVLIEKPIAASISEAESLVNAAAESQCILQVGHIERFNPAFRELSKVMKTEEVLALEAHRMSPYSDRANDVSVVLDLMIHDIDLLLELAASPVTKLTASGTRALDSGYLDYVTATLGFANGIVATLTASKVTHRKIRRIVAHCKNSFTEADFLKNEILIHRQTSASPVNDHRHYRQDGLIEKVYTTNIQPLSAELEHFVNCVHGGNQPSVGGEQALKALRLASLIEQMALEERVWNPLDWQSESRVQSLTQSV | not soluble |
| MGSDKIHHHHHHMFSVEQLQAFITTVETGSFSAAARRLNKVQSVVSQHVINLEVDCNILLFDRSGRYPALTEAGEKLLPHAQAVIDQHQRLKNSALSLTDNTPKEITIALDEGISFKLISGIISNLQNEFPNITLEFLSASSPDIIDMLKNEKALTGIVFSELTIPSYLDFECIGSIKFDLYVAKSHPLANQVCKNIDSLRLHRQLLIRSRNTQSSSFQLKLSPNVWYADNYFLLLELALQGNGWCLLPNHIANESVESGQLVKLPLEFEEMGWQANVDVVQHQRHSNLAVFKVLRLLLRNLL | not soluble |
| GPGSMSHSSLKRAPEITPQAATDKDSILCRSAHAKPLSFTTAPRDSAMVKLDVTLLRFMEDEDFRVLTALEMAMRNHDVAPTALVERIAQLPHGGCRKRLNNLLKHKMIHHENTMYDGYAMKYGAYDYLALRTLSKRGTCTGVGHRIGCGKESDIILVRDEAGHECVLKLQRLGRCSFRSVARNRDYKGNGRARHGESWFYLSRLASQKEYSFMKMLYDEGFPVPKPIDQNRHALLMELVPGTLLNNITELGDASKVYRRALELMVKLAESGLIHGDFNEFNLMITDDQRVIMIDFPQMISINHPNASELFDRDVQNLANFFHRRFKVDTTWFPSLEKDVVRKNELDKQVYASGHFTRKQQEDLERLMLEGFQRGEKSDDEAGSQARDSDASDDDGDENALQRSDIGNADVDAGVAGKFMTIPGFARGGESDEEREDSSDDDASEGRLLDEAMGAARERRQGEFYAHNADRNANFFPDGKINEDHVKHQIRKSIRRKDNHDFNRHLHRNVQKGRQKQKIQRQLKSSNGGGFFD | not soluble |
| MASATLPRFDLMGWDKKDIADPYPVYRRYREAAPVHRTASGPGKPDTYYVFTYDDVVRVLSNRRLGRNARVASGDTDTAPVPIPTEHRALRTVVENWLVFLDPPHHTELRSLLTTEFSPSIVTGLRPRIAELASALLDRLRAQRRPDLVEGFAAPLPILVISALLGIPEEDHTWLRANAVALQEASTTRARDGRGYARAEAASQEFTRYFRREVDRRGGDDRDDLLTLLVRARDTGSPLSVDGIVGTCVHLLTAGHETTTNFLAKAVLTLRAHRDVLDELRTTPESTPAAVEELMRYDPPVQAVTRWAYEDIRLGDHDIPRGSRVVALLGSANRDPARFPDPDVLDVHRAAERQVGFGLGIHYCLGATLARAEAEIGLRALLDGIPALGRGAHEVEYADDMVFHGPTRLLLDLPDAALEHHHHHH | soluble |
| VEGLNPLIPQKSNRGVIDVAIFREYVSGGKDRAAEDRRRHRELVEESIKKNIGNIIAEESIIGQSKDKKIKIPIRSIKEYQFVYGKNGPSVGSGDGTEKRGEKIGEEKTANGGQGVGQAGNQEGEEIYETEITIEELINYLFDDLNLPDIDKKRIAEQESIRSYKNLGYQRKGIPPRLAKKRSVIEKIKRKQAYLRNSRELGDLDESAEEDIAAQETLDGVRKRFPFSEDDLRYRRVREDRKKDFNAVVICIMDVSGSMDQTKKYLARSFYFLLYQFIRLKYANVDVVFIAHTTTAKEVSEDEFFHRGESGGTYISSGYEKALEIIEQRYNPNSWNIYAFHCSDGDNWSEDNKKAVELGLKLCDVCNLFGYGEIVPGYYSTGSTIKDEFQKSIKRDNFSVITITNKDDVLPGLKKLLEKEGE | soluble |
| MDSEEPPNVRVACSGDIDEVVRLMHDAAAWMSAKGTPAWDVARIDRTFAETFVLRSELLVASCSDGIVGCCTLSAEDPEFWPDALKGEAAYLHKLAVRRTHAGRGVSSALIEACRHAARTQGCAKLRLDCHPNLRGLYERLGFTHVDTFNPGWDPTFIAERLELEI | not soluble |
| MGSDKIHHHHHHMKKQNIAGFSKVDDTANPQDFVSYLDAISSLNSIQKYKQQTFTRLEIQAGDRILDVGCGIGDDVRSLAVKVGNAGEVVGIDRSETMVKEAQSRSADLGLPVAYYVGDAEKLEFPDCTFDACRSDRTFQHLLNPRQALTEIVRVTRCGGRVVVSDPDWETLVIDTGDRALTRKILNFHCDSCVNGWIGRQLPTLFQEVGLHKINVDTYTLILTDCTLADKHLGVINAAMKAQQAGLISIAEAANWITNLEAASQAGRFFCAITGFLAFGCKP | not soluble |
| VSAPDSPALAGMSIGAVLDLLRPDFPDVTISKIRFLEAEGLVTPRRASSGYRRFTAYDCARLRFILTAQRDHYLPLKVIRAQLDAQPDGELPPFGSPYVLPRLVPVAGDSAGGVGSDTASVSLTGIRLSREDLLERSEVADELLTALLKAGVITTGPGGFFDEHAVVILQCARALAEYGVEPRHLRAFRSAADRQSDLIAQIAGPLVKAGKAGARDRADDLAREVAALAITLHTSLIKSAVRDVLHR | soluble |
| MSDAPTVVAYLGPAGTFTEEALYKFADAGVFGDGEIEQLPAKSPQEAVDAVRHGTAQFAVVAIENFVDGPVTPTFDALDQGSNVQIIAEEELDIAFSIMVRPGTSLADVKTLATHPVGYQQVKNWMATTIPDAMYLSASSNGAGAQMVAEGTADAAAAPSRAAELFGLERLVDDVADVRGARTRFVAVQAQAAVSEPTGHDRTSVIFSLPNVPGSLVRALNEFAIRGVDLTRIESRPTRKVFGTYRFHLDISGHIRDIPVAEALRALHLQAEELVFVGSWPSNRAEDSTPQTDQLAKLHKADEWVRAASEGRKLN | soluble |
| MKNFLLLTLILLTACNNSEENTQSIIKNDINKTIIDEEYVNLEPINQSNISFTKHSWVQTCGTQQLLTEQNKESISLSVVAPRLDDDEKYCFDFNGVSNKGEKYITKVTLNVVAPSLEVYVDHASLPTLQQLMDIIKSEEENPTAQRYIAWGRIVPTDEQMKELNITSFALINNHTPADLVQEIVKQAQTKHRLNVKLSSNTAHSFDNLVPILKELNSFNNVTVTNIDLYDDGSAEYVNLYNWRDTLNKTDNLKIGKDYLEDVINGINEDTSNTGTSSVYNWQKLYPANYHFLRKDYLTLEPSLHELRDYIGDSLKQMQWDGFKKFNSKQQELFLSIVNFDKQKLQNEYNSSNLPNFVFTGTTVWAGNHEREYYAKQQINVINNAINESSPHYLGNSYDLFFKGHPGGGIINTLIMQNYPSMVDIPSKISFEVLMMTDMLPDAVAGIASSLYFTIPAEKIKFIVFTSTETITDRETALRSPLVQVMIKLGIVKEENVLFWADLPNCETGVCIAV | soluble |
| MDAFRLAPCGPLRGRLRVPGDKSVTHRGLMLLALAEGEGRLFYPLKAGDTLSTARVLQALGAEVREEGPHFLVRGRGLRFQEPEDVLDCGNAGTLMRLLLGLLAGQEGLFAVLTGDASLRRRPMGRVVAPLRAMGARVDGREEGERAPLAVRGAPLRGLRYTLPVPSAQVKSALLLAGLFAEGVTKVEEPTPTRDHTERLFRHFGLPLEVEGRKVRTWRTGPFPAKDLVVPGDFSSAAFFLVAALVTPGSEVVVEGVGLNPTRTGLLTVLKAMGADLEWQVLEGEAGEPVGWVRARHSLLKGVAVDPGLIPLMVDEVPVLAAAAAWAEGETYIPGLSELRVKESDRVRAIAENLRALGVEVEEGPDWLRIRGGGVRPGRVRPFHDHRIAMAFAVAGLPVGVEVEEPHWAEISYPGFFQDLLRLCAAS | soluble |
| MGSDKIHHHHHHSQTRYFADKKVSKSKNIVAADKVTDKEKETETWTSIPQRAVAYQELTTYEDSNLTKSVGKIPAKTQLDIPEIVGKSFKLKTGKYISTDKKAVISDLTISRESINTTIYTDKSVNVFYNPVTTYDNQIMTNLSGTHQLSADKMAKTNWGTYYEVSLDNGQKGWVSENDISLENPKIKQVQALLNQKYNDKKYSIYVKELDDKFTAGVNQEQKMYSASLSKIPILYWTQKRLNEGLASLDDKLLYTPAINTFYGSYKPEGTGNLPKTADNKYYSLQDVINRTAKLSDNVGSNMLAYYETQEFNPNYQKEINRIAGQEWNPKERNASAQMVGRMLEALYNEGGASFNALFDTSFDDVKIRAGVPKNISVAHKIGGADTDNHDAAIVFASKPYLLVIETDGATDDEIKAISQDVYGVMK | not soluble |
| MIRYKIYQNQQKKGLNAGKWFARAVSDETFDLSKLAEHMSKHNSPYSSGVIKGVLTDMVDCIKELLLDGKSVKIDDLAIFGVGIRSKAAETLEEFSLEKNITGMRLKARATGNLSTTNLKLDSQLKQQAEYQKPTTPGGGGSGSGNTPDPKPNPDEGDEEAPDPTV | not soluble |
| MSLSEEKWAIITGADGGMGTEITRAVAEAGYHIIMACYRPSKAEPIRQRLVNETGNANMEVMAVDLSSMASTASFADRIVERHLPVSLLMNNAGTMETGLHITDDGFERTVSVNYLGPYLLTRKLLPALTCGARIVNMVSCTYAIGHLDFPDFFRQGRKGSFWRIPVYSNTKLALMLFTIELSERLREKGITVNAADPGIVSTDIITMHQWFDPLTDIFFRPFIRTPKKGASTAVGLLLDEAVAGVSGQLYASSHRKQLSEKYLCHVQQKQLWQETEQALERWLKEGHHHHHH | soluble |
| MLNRNRNVNKQNGHQKQNGAQKSELRGKNAPPYLERETCLGRNDIFVVEKMIAGGGFGQVYRARNTETQEEVAVKVERATTNDSQRMILESKVLDDMLGSKHFPNVYYIGPYHSYNFIVMQMLGKNIGDIRKMMPNKKISILSSVRIGIQIIEALSLLHSKGWLHRDLKPTNCCLGLDEKRKTVYLVDFGMSRKFRNDNGSLRESRTYCGFRGTTRYCSYRMHDRREQGPVDDLWCLYYSLGELIEGCLPWRDIESADEMAHVKKILKHEDIFHSMPSKFASFGRNLRRLRPANTPDYTKFQNILAYCVKFVDDNAEFEWDVMDY | not soluble |
| MDFITDMSKNQRLELQNRLAQYETSLMVMSHNGDVPVITGFNVMRVTTMLDALKVELPAVAVLGDDAQDLAYVFGARPLAVGVNIIRVVDVPGQQPSALVDAELGALHEVSMVRVLNDIADEQLVKANM | soluble |
